Test results: publication PMC3462190, “A Peptidic Unconjugated GRP78/BiP Ligand Modulates the Unfolded Protein Response and Induces Prostate Cancer Cell Death” (PLoS ONE, 2012)
Where no end group is shown, it is not given here.

B1: Bag-1 peptide: internal sequence of 68 amino acids of Bag-1 (Bag1-L 202–269), HA-tagged, expressed from pcDNA3 (peptide)
chain: TPLSALGIQDGCRVMLIGKKNSPQEEVELKKLKHLEKSVEKIADQLEELNKELTGIQQGFLPKDLQAE
modifications: also: HA tag, end not given here

Experiments:
BPH-1 cells = assay: Clonogenic assay; assay type: cell-based, Human; settings: benign prostate cells, 19-mer vector vs control; at least three experiments
Description: Figure 6 Selectivity of action of the Bag-1 peptide. A Amino acid sequence of the 19mer peptide and its deletion mutants. B GST pull-down assay performed incubating 400 µg of 22Rv.1 cell lysate and 25 µg of GST-fused deletion mutants of the 19mer peptide. After the pull-down experiment, Western blots were carried out with anti-GRP78/BiP and GST antibodies. C. Fluorescence polarization (FP) assays with a 10 nM FITC-labeled 7-mer Bag-1 peptide and dilutions of the GST-fused substrate binding domain of GRP78 in 60 µl of Tris-GSH buffer (50 mM Tris, 10 mM reduced glutathione and 0.1% BSA, pH 8.0). Triplicate samples were measured after 5 h of incubation at room temperature with an Infinite F-200 reader (Tecan) with excitation at 490 nm and emission at 535 nm. Binding constants were determined from three independent experiments using non-linear regression in Sigma Plot 10.0. D. Competition assays with a complex of 10 nM of FITC-labeled Bag-1 7-mer peptide and 0.75 mg/ml GST-fused GRP78 substrate binding domain was measured against a dilution series from 100 µM to 0.1 nM of wild-type Bag-1 7-mer peptide (filled line) or triple mutant peptide (dotted line) in 40 µl of Tris-GSH buffer. […] Fluorescence polarization was determined as described above and IC50 values were determined in Sigma Plot. […] The colonies were stained and quantified. […]

22Rv.1 xenograft tumor = assay: TUNEL assay on xenograft tumor sections; assay type: in vivo, athymic nude mice; settings: 22Rv.1 xenografts, clones P25, P29 and P42 vs V18, V19 and V33
Description: Tissues were fixed in 10% formalin for 16 h at room temperature, stored in ethanol (50%), paraffin embedded, and sectioned 5 µm thick with a Leica RM 2155 microtome. Apoptotic cells were detected via terminal deoxynucleotidyl transferase-mediated deoxyuridine-triphosphate-biotin nick end labeling (TUNEL) assay using the DNA fragmentation ApopTag® peroxidase in situ apoptosis detection kit (Millipore, Schwalbach, Germany).
Figure 4 The Bag-1 peptide inhibits prostate cancer cell growth in vivo. A. Stable clones of 22Rv.1 cells show reduced cell viability in vitro. Stable clones were seeded in a 96-well plate and the cell number in each well was estimated by measuring the ratio between the wavelength of excitation and emission 560/590 nm using the CellTiter-Blue™ proliferation assay. The bar charts represent the mean of at least four independent experiments ±SD (*p<0.05). B. Determination of the level of the Bag-1 expressed in the 22Rv.1 clones. Cellular extracts of 22v.1 stable clones were subjected to Western blot analysis. An anti-HA antibody was used to detect the peptide and an anti-β-actin antibody for equal loading control. […] Tumor size was measured once per week using a caliper and expressed as tumor volume in mm^3. […] Nuclei are stained blue-purple with hematoxylin while apoptotic cells detected with the TUNEL assay are stained brown. […]

GADD45 = assay: Interaction with GADD45 (results not shown); assay type: binding

Molecule	BPH-1 growth in clonogenic assay (BPH-1 cells)	TUNEL positive cells (apoptosis) (22Rv.1 xenograft tumor)	interaction with GADD45 (GADD45)
19-mer: Bag-1L 202–220 (TPLSALGIQDGCRVMLIGK; not fully specified)	not growth inhibited		
B1		strong signals indicative of massive apoptosis	interact with GADD45
